Laboratory results: article PMC5740062, “CRTC1 mediates preferential transcription at neuronal activity-regulated CRE/TATA promoters” (Scientific Reports, 2017)

Biological target: T1, cAMP-responsive element-binding protein (CREB) (mouse (endogenous in primary cortical …, UniProt Q01147-1 1-341, phosphoserine at 133 (blotted as pCREB after FSK/KCl)))
T1 construct: Precipitated with an anti-CREB antibody and detected on blots as phosphorylated CREB (Ser133); also called pCREB; endogenous CREB; source: endogenous, mouse primary cortical neurons (12 DIV), formaldehyde-crosslinked, in lysate
T1 sequence (Q01147 other isoform, or with tags, fused parts or gaps): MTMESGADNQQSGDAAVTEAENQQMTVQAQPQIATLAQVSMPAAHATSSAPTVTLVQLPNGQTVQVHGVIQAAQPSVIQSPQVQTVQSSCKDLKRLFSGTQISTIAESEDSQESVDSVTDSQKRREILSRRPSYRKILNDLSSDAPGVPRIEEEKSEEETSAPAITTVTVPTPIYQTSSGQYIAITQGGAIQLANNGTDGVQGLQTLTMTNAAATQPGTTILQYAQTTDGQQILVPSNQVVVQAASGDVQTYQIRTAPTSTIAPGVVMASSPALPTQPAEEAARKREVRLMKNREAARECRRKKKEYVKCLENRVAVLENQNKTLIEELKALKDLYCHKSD
Experiment: co-IP; endogenous proteins; cortical neurons (12 DIV) treated with vehicle or FSK/KCl, crosslinked with 1% formaldehyde, lysed by sonication (50 mM Tris-HCl pH 8, 1% Triton X-100, 100 mM NaCl, 1 mM MgCl2); 2 mg protein immunoprecipitated overnight at 4 °C with anti-CREB or anti-CRTC1, Dynabeads protein G; blots of CRTC1 and pCREB; percent normalised to the maximum immunoprecipitation with the specific antibody in …
Settings: partners not purified

B1: CREB-regulated transcription coactivator-1 (CRTC1) (natural protein, UniProt Q68ED7 1-630, looked up)
chain: MATSNNPRKFSEKIALHNQKQAEETAAFEEVMKDLSLTRAARLQLQKSQYLQLGPSRGQYYGGSLPNVNQIGSSSVDLAFQTPFQSSGLDTSRTTRHHGLVDRVYRERGRLGSPHRRPLSVDKHGRQADSCPYGTVYLSPPADTSWRRTNSDSALHQSTMTPSQAESFTGGSQDAHQKRVLLLTVPGMEDTGAETDKTLSKQSWDSKKAGSRPKSCEVPGINIFPSADQENTTALIPATHNTGGSLPDLTNIHFPSPLPTPLDPEEPPFPALTSSSSTGSLAHLGVGGAGQGMNTPSSSPQHRPAVVSPLSLSTEARRQQAQQVSPTLSPLSPITQAVAMDALSLEQQLPYAFFTQTGSQQPPPQPQPPPPPPPVSQQQPPPPQVSVGLPQGGPLLPSASLTRGPQLPPLSVTVPSTLPQSPTENPGQSPMGIDATSAPALQYRTSAGSPATQSPTSPVSNQGFSPGSSPQHTSTLGSVFGDAYYEQQMTARQANALSRQLEQFNMMENAISSSSLYNPGSTLNYSQAAMMGLSGSHGGLQDPQQLGYTGHGGIPNIILTVTGESPPSLSKELSSTLAGVSDVSFDSDHQFPLDELKIDPLTLDGLHMLNDPDMVLADPATEDTFRMDRL
notes: also called endogenous CRTC1; source: endogenous, mouse primary cortical neurons (12 DIV), formaldehyde-crosslinked, in lysate
percent of CRTC1 co-immunoprecipitated with anti-CREB (FSK/KCl), relative to its immunoprecipitation with anti-CRTC1: ~37%
